{"source": "the DeepSol protein solubility set", "data": [{"assay": "soluble on expression in E. coli; label from the status in PepcDB or PDB records", "values": [{"sequence": "MRQATRKGLMTMAAATGVIAAAGGAAHADSGAHGTSSGSPGVLSGNTVQAPVHVPVNVCGNTVDVVGVLNPAMGNACANQGGGASGGHGGHGGHGGYGDSGGEGGSHGGSHAGGHATDSPGVGSGNHVEVPIDVPVNVCGNSIDVVGALNPTTGNDCGNGGGGDHSTPPGDHETPPGEPHNPGNPGNPDTPDKPSGPDDETPGDSTDGNRPGAQTVDQPRGDAALAETGSDLPLGLALPVGAGALLAGTVLYRKARASVLEHHHHHH", "soluble on expression in E. coli": "not soluble"}, {"sequence": "MRQRIAVVGGGPAGLAFARVMHRHDRSVTVLERDPAPDARPPGGTLDLHEGLGRLAMDKAGLSAEFEALSRPEGQAMRILDTDGTVLRDWRPDPAERANPEIDRGQLRDLLLGPLDVRWGQGVTKVVPGGRDGVLVHFEDGRQEAFDLVVGADGAWSRTRPAVSPVTPHYTGVTSVETSLDDVDTRHPDLARLVGDGSVAVYGVNRAVVAQRNSGGHVKVHAQFRAPLDWHAHLDLGDAEAVRSRLLTLFDGWTAPVLDLLRHGTGFVHRPLHVLPVSHTWTHVPGVTLLGDAAHLMPPLGAGANLALLEGAELAESLADGSADPDDAVRAFEERMWARAGRWAKITAAGLERLVSPDPAAALAVFDQVQPSRLEHHHHHH", "soluble on expression in E. coli": "not soluble"}, {"sequence": "MRQRSSYPKPFKAQVVQECLQPGATVSSVAINHGINANVIRKWLPLYRDLPAAASLPAFVPLKAAPKRPVEASVIIELPVAGQVITVKWPASDPEGCAQFIRAFAQLEHHHHHH", "soluble on expression in E. coli": "not soluble"}, {"sequence": "MRRDYMSVYDYPVPTTPWLNTAPGLFIDDYTSTASSTVSSLSRTLIYDYEQNPDSGNNVVALAAKAGYSTWWISNQGKLGEHDTRISVIASDAEHATFLKKGSFASRKTDDKLLLQETERALADTSSPKIIFLHMMGSHPNPCDSLNSLEHHHHHH", "soluble on expression in E. coli": "not soluble"}, {"sequence": "MRRIITMTVNNRPGVLNRITGLFTKRHYNIESITVGHTEIEGISRMTFVVNVDDERTAEQIIKQLNKQIDVLKVNDITDQAIVARELALIKVAAPPAVRQEIYTLIEPFRASIVDVSKDSLVIQVTGEPEKVEALIELLRPYGIKEVARTGTTAFTRGAQKATTNQKTAFII", "soluble on expression in E. coli": "not soluble"}, {"sequence": "MRRKNLFWDDVYKGTPPWDLDHPQPAFEALIKNGEIKPGRALDIGCGRGENAIILAMNGCDVIGIDLAENAISDAKAKATERHVKVKFVVEDALQMNRLFEEGEFDVVIDSGLFHVMMDEQRRVFAQQVHRVLREGGKYFMLCFSDKEPGEYELPRRLSKAEIESTFSPVFDITYIKEAVFDSLLSPSRRKAYLLSATRSLEHHHHHH", "soluble on expression in E. coli": "not soluble"}, {"sequence": "MRRQRRSITDIICENCNYLPTKRSRNKRKPIPKESDVKTFNYTAHLWDIRWLRERARKTR", "soluble on expression in E. coli": "not soluble"}, {"sequence": "MRRRVGLGAIQQQKLAAEKYKDKGTDLQENQLEQMTKQMEVFRVKLEEFAMKHKEDIRKNSQFRKQFQEMCAAIGVDPLATGKGFWSVLGMGDFYYELGVQVVEVCLAANHKTGGLMELDDLRRRLIAARGQSSVHQEITKEDILMAAKKLSIFGNGFVVHKLGKGKYIVQSIPGELSMEETNILNAASNTEQGCVTQSQLIKDLGWTDYRAQQSLDKVLGEGLCWIDKQAGDEPAYWFPSLFPGRNAQTTAATAAAAAALEHHHHHH", "soluble on expression in E. coli": "not soluble"}, {"sequence": "MRRTTRYPVSGESSLWNVYKTVSFWKVMKNFIIIQIARYTPFLSVKNWLYRTFLRMKVGKKTSFALMVMPDIMFPEKITVGDNSIIGYNTTLLAHEYLIREYRLGEIVIGNEVMIGANTTILPGVRIGDGAIVSAGTLVHKDVPSGAFVGGNPMRVIYTKEQMEAREGSY", "soluble on expression in E. coli": "not soluble"}, {"sequence": "MRSAIAAPILFLLVSFFVQECESVGFAPELYCGLENCYDVLEVNREEFDKQKLAKAYRALARKHHPDRVKNKEEKLLAEERFRVIATAYETLKDDEAKTNYDYYLDHPDQRFYNYYQYYRLRAAPKVDL", "soluble on expression in E. coli": "not soluble"}, {"sequence": "MRTEGRLVRANLPLNLPSPTMRYMTPQRFGMGGTQIGNIFAPISDEQADLVLQAAWNAGVRLYDTSPFYGFGLSEYRLGRFLRGKDPADYVISTKVGRVLTAAGGARQDHAIWKSPAPFNYRYDYTAAGARRSVEDSLQRLGLPRIDIVFIHDLSPDNTELEGGWEAAYRIARTGAMVELEKMRDEGLIKAWGFGVNTPNAVVQAMGSDDPTPDIVLLACQYSLIDHSEALRNTFPALHRKGTSVVVGTPLNDGFLGGRNRYNFSLELPAGAVEKRKRIMAVAARHGIDIHTAALQFAAAHPQVSAIIPGARSPGQVMSNVQAMKVGIPAAFWAELKSQSLMDAQAPVPS", "soluble on expression in E. coli": "not soluble"}, {"sequence": "MRTISFFNNKGGVGKTTLSTNVAHYFALQGKRVLYVDCDPQCNATQLMLTEEQTESIYLDGLNDEVAERNSLAKTVYAIFVPLREGESQIAAEITPMRSERFGVDVLPGHPALSQIEDLMSDSWQSALGRQTGPFRRIHWAGQLAHAMERDDRYDVIFFDVGPSLGPFNRTVLLGCDAFVTPTATDLFSFHAFGNLARWFDAWVTQYAEIHEGNMAEWKKYSADVEAKTRPLRLGGFDGEGLRYLGYTTLEYVKRRANGQEQLVGAFERFRGRFAAEAERISNSLSKHSNSTLLGHVPHMHSMPATAQDVHAPIMELSSSDRVRGAQINQRNAYAEKINSVAANVYKALFPNELEHHHHHH", "soluble on expression in E. coli": "soluble"}, {"sequence": "MRTPLSSVSPQLVQRFHELGFTPSSIRNFLGRPGFAAISRGEPASVLYAMRENEDSDFYPLIATFILHRPVAAEALHRVLGGSLTDQLTETGVLEIVDASKAYLTAKIDIRWLELEDDLFWVFSDTDASMIADHVPGKDHVLGVGAASLSL", "soluble on expression in E. coli": "not soluble"}, {"sequence": "MRTQNDLDRRLRSFGGRDGQMTTLSVRRLPVENGISGWEAISKRSKPVRRLEGDVTADWLIIGAGFAGLSAARRLTQLHPGETIVVLDASEVGKGTSGRNSGFMIDVPHNLASSEYSSGAIDATRLEMEQNRSAIAFAAAAAEDYGMSRQTFDPAGKINAAATRRGMTLNQNFAASLKNAGEKHTLLDAAQMRALTGSDYYLGGLYTPGAVLIQPADYIREFAAGLSPKVDIFENSPVTALRRENRAWKATTPSGSVTAPKVILGVNGHVDDFGHFRGRLIHIFAYASMTAPFAARDYGSRVSGQDKWALLPADAMGATVRKITSDGQSRIAIRTRYTYETTLDLTKHQLSKMVRAHRRSLDDRFPGLGGIPFEYSWSGRICLSLNHVPAFGEIEEGLFSACCENGLGTVKSTLAGMMAAELATGTTSRHLEQYMDHPAPSRLPPEPFAWLGINSVIRLQELRAGREGLEHHHHHH", "soluble on expression in E. coli": "not soluble"}, {"sequence": "MRVAFFGTPLWAVPVLDALRKRHQVVLVVSQPDKPQGRGLRPAPSPVARYAEAEGLPLLRPARLREEAFLEALRQAAPEVAVVAAYGKLIPKEALDIPPHGFLNLHPSLLPKYRGAAPVQRALLAGERETGVSIMRLDEGLDTGPLYAVWRTPILPDEDAVALGNRLRDKGVELLLEVLERLPELTPRPQEGEASYAPPLSKEEGRLDFGESAEALYRRHRAVQPWPGSYFFHRGQRVKALRLRPEPGEGEPGVVARVGPEGVVVGTASGLLLLLEVQPEGRRAMPAADWARGYGVAPGTRLGQV", "soluble on expression in E. coli": "soluble"}, {"sequence": "MRVEDVMVTDVDTIDITASLEDVLRNYVENAKGSSVVVKEGVRVGIVTTWDVLEAIAEGDDLAEVKVWEVMERDLVTISPRATIKEAAEKMVKNVVWRLLVEEDDEIIGVISATDILRAKMAKRY", "soluble on expression in E. coli": "soluble"}, {"sequence": "MRVLVSGGGTGGHIYPALALIREIKKLNPEARFLYIGTENGLESTIVPKAGIPFQSIVISGFKRKISLDNVKTVMRFLKGVQDSKRYIRRFNPDIVIGTGGYVCGPVVYAAAKLGIPTIVHEQNSVPGVTNKFLSRYVDKVAVCFEAAAEHFPQSKVVMTGNPRASEVMDQNGMKGKRSVGLSLPKKSVLIFGGSRGARPINDAFVEAIEQFGNKSYEILYVTGEVHYDKVMEAVKQKGNPNNVIIKPFIHNMPEVLTGVDLVVSRAGATTLAELTALGKPSVLIPSPYVTNNHQEKNARSVVDKGAAKMLLEKDLTAETLIRDIDEILLDAQTLQNMKLAAGQLGIPDAANKLYEVMNKLVKK", "soluble on expression in E. coli": "not soluble"}, {"sequence": "MRVRIVGAPSLLVGVISDTHDNLALARRAGEIFARERVEAVIHLGDYVAPFTLAELLGVVGGKAVFYGVFGNNDGERLGLSRVAGGFGASLLDPPATVSIGGRRLLLLHGFGSPENTVELVDALASSGRWDAVLYGHTHKARVERVGGSLVLNPGDGGGSLEKPSAAILDLESMEARLVSLEGAAALEHHHHHH", "soluble on expression in E. coli": "not soluble"}, {"sequence": "MRVVYTSPRIENLQFLKSEFSNYSVIVLEEPKNDLFHDVLEGKITVDLYVRKISTQFPLYTRKLIEMLKELKSREIMQVEPYLEEVERLKNFSEGDERVREMEKRVNALYIDYTESFLKSDFDEIVEKVLRFSEAEAERIMLRDEMRAKALDDLDEAVIEAGMNHIKLAEILDAESVRIPEIIAERLGTRYLENPGEKLLKAFIFEEDDDLRLLAARNLIFTSLLEKREMEPDFDGDYPHFTHEQKLVRFVDKLDYEKCRKLFYRFWSPR", "soluble on expression in E. coli": "not soluble"}, {"sequence": "MRWTKEELDRYHRQMILPQVGPEGQERLKRASVVVVGAGGLGVPVLQYLVAARVGRVGVVEMDRVEVSDLHRQVLYTTEDVGEPKALVAQKRLQALNPLVRVEAYPVRLTSENALEILRPYDLVVDASDNFPTRYLVNDAAVLLGKPLVFGAIYQFDGQGTVFHHPTLHGEMGPCYRCLFPKPPPPGAVPSCAEAGVFGVLPAVVGSLMAAEALKVLLGIGKPLAGHLLLYDALEAGFRKLTVRRNPRCPVCGDEPTQRELVDYEAFCGLG", "soluble on expression in E. coli": "soluble"}, {"sequence": "MRYRDFDIFKFWFRAVEKFAPWVHKIYLITDNQVPDWLDTRNSKLTVIDHRDIMDADWLPTFNSNAIELNAYKIKNLSEKFVLFNDDTILNSYVDKVDFFDENYPKDIYVESPIMATKGSVDHIMVNNVEIINEFFEKKNFYKKNLTKVFNPKIGIKLLRTLALLPSSKFAGFWNSHLPISYNKTTFETVWSNCEGKLVATSKNKFRTAYDVSHWLMRYWQLASGNYHLQNNIGKVYDLSSQNIDEVVTQLQRSHSKIICLNDNDELDDYEGVKGKLVTTLNEKFSEKSKFELLEHHHHHH", "soluble on expression in E. coli": "not soluble"}, {"sequence": "MRYSDGRYEADIDITVEEWKSMLQNPKIFGPKYLDMILKWYYEIDHRATSQAIMAKYPSELKGTPYNGYVIGLTNRIIKYLNRFEVIGTQGNESKFIVPFEGWYEDYKEGNHFVWKVRDELVQAIEELGLVDEKKFPSEEEELKSYSIENRKDGKIIMRYTTQYERNPINRRNAIRIHGTVCQGCGFDFEKVYGEIGKDYIEVHHIKPLYEGGGSVPINAETDLICVCANCHRMIHRRKDKVLSLKELQKLLLANKNLEHHHHHH", "soluble on expression in E. coli": "soluble"}, {"sequence": "MSAAPLVRAVRWYQRVLSPRKPAPTCRFSPTCSEYAAQALDRHGALKGGWLALWRVLRCNPLVPGGFDPV", "soluble on expression in E. coli": "soluble"}, {"sequence": "MSAASTTSTPAAAAVAPQQPESLYRVVQTLGEGAFGEVLLIVNTKNPEVAAAMKKINIANKSKDFIDNIRKEYLLQKRVSAVGHDNVIRMIGMRNDPQFYYLFLEYADGGELFDKIEPDCGMSPVFAQFYFKQLICGLKFIHDNDVVHRDIKPENLLLTGTHVLKISDFGMATLYRNKGEERLLDLSCGTIPYAAPELCAGKKYRGPPVDVWSSGIVLIAMLTGELPWDRASDASQSYMGWISNTSLDERPWKKIDVRALCMLRKIVTDKTDKRATIEQIQADPWYQHNFGQVETPNGRPLKRARNNDENITCTQQAECSAKRRHLETPNEKSTLAERQNASFSQPTKTEDLLLTQHIDMSQTNSNLLQRMVCRMTRFCVVTDIRSTYQKVARASEHAGFGVRETDDYRLLVTWREVSMMVSLYTMGDIPDKPRVMVDFRRSRGDGIQFKKMFMDVRNRMHEWICTDGNNWLANLGYVPRNPQIVNGGGVNVEHSASSINVDV", "soluble on expression in E. coli": "not soluble"}]}]}
